Reference: patent publication EP2404612A1, “Diagnosis, prophylaxis and therapy of Alzheimer's disease and other neurodementing disorders” (Balakrishnan, Karthikeyan, priority 2010, dated 2012)

Assay: CD spectra analysis of ß-sheet conformation
Assay type: physicochemical
Conditions: 62.5 µM in sodium carbonate (0.05 mM)/ SDS (37.5 mM) buffer, 20°C, instantly after resuspending in buffer
Experimental: To compare the ß-sheets formed by the wild type and the mutated trimer, respectively, CD spectra analysis was performed. Both peptides were measured at a concentration of 62.5 µM in sodium carbonate (0.05 mM)/ SDS (37.5 mM) buffer with a JASCO J-810 spectroplarimeter (JASCO, Easton, MD, USA). Far-UV CD spectra (190-260 nm) were recorded at 20°C using a quartz cuvette with an optical path length of 1 mm. The scanning speed was set at 20 nm/min with a response time 4 second and bandwidth 2 nm.

wild type Aβ: wild type Aβ peptide compared with mutated Aβ (1-40; G29Ile,G33Ile) in CD spectra; length not stated
ß-sheet: 1%
